Changes are numbered by the printed parent chain.
B1: 2.351.3 (antibody, V domains shown)
VH: QVQLVQSGAEVKKPGASVKVSCKASGYTFIGYYLHWVRQAPGQGLEWMGSINPNSGGTNYAQKFQGRVTMIRDTSINTAYMELSRLRSDDTAVYYCARDKRITMVRGVHYLYYGWDVWGQGTTVTVSS
VL: DIQMTQSPSSLSASVGDRVTITCRASQVISNYLAWYQQKPGKVPQLLIYAASTLQSGVPSRFSGSGSGTDFTLTISSLQPEDVATYYCQNYKSAPWTFGQGTKVEIK
B2: 2.542.2 (antibody, V domains shown)
VH: QLQLQESGPGLVKPSETLSLTCTVSGGSISSSTYYWGWIRQPPGKGLEWIGTIYYSGSTYYNPSLKSRVTISVDTSKNQFSLKLNSVTAADTAVYYCARHHWVFDYWGQGTLVTVSS
VL: EIVLTQSPDFLSVTPKEKVTITCRASQIIGSSLHWYQQKPDQSPNLLIKYASQSVSGVPSRFSGSGSGTDFTLTLNSLEAEDAATYYCHQSTILPWTFGQGTKVEIK
B3: 2.796.2 (antibody, V domains shown)
VH: QVQLVESGGGLVKPGGSLRLSCAASGFTFSDYYMNWIRQAPGKGLEWVSYISSSGSIIYYADSVKGRFTISRDNAKNSLYLQMNSLRAEDTAVYYCARDGHIAARGMDVWGQGTTVTVSS
VL: DIQMTQSPSSLSASVGDRVTITCRASQSFSRYINWYQQKPGKAPKLLIYAASSLQGGVPSRFSGSGSGTDFTLTISSLQPEDFATYYCQQTYSNPPITFGQGTRLEIK
B4: 2.737.1.4 (antibody, V domains shown)
VH: B3 VH with S30R, N35S, S49A, Y50F, Y80F
VL: B3 VL with F29I, S30N, R31K, G56S, S63N, L73F, S76N, S77T, N94T
B5: 2.175.3 (antibody, V domains shown)
VH: QVHLVESGGGLVKPGGSLRLSCAASGFTFSDYYMHWIRQAPGKGLEWVSYISRSGSLIYYVDSVKGRFTISRDNAKNSLNLQMNSLRAEDTAVYYCARGGPYSGSPFDYWGQGTLVTVSS
VL: DIQMTQSPSSLSASVGDRVTITCRPSQRISRYLNWYQQKPGKAPKFLIYAASSLPSGVPSRFSGSGSGTDFTLTISTLQPEDFATYYCQQSYSTPPWTFGQGTKVEIK
B6: 3.341.2 (antibody, V domains shown)
VH: EVQLVESGGGLVQPGGSLRLSCAASGFTFSSYSMNWVRQAPGKGLEWVSFISGSSSTMYYADSVKGRFTISRDNAKNSLYLQMNSLRDEDTAVYYCARLRYFDWSYAFDIWGQGTMVTVSS
VL: DIQMTQSPSSVSTSVGDRVTITCRASQGIRSWLAWYQQRPGKAPKLLIYAASSLQNGVPSRFSGSGSGTDFTLTISSLQPEDFATYFCQQATSFPFTFGPGTKVDIN
notes: Only variable regions
B7: 2.351.3 (antibody, V domains shown)
VH: B1 VH
VL: B1 VL
B8: 2.414.2 (antibody, V domains shown)
VH: B2 VH with T33N, S56T, N85S
VL: B2 VL with N45K, V55F
B9: 2.542.2 (antibody, V domains shown)
VH: B2 VH
VL: B2 VL
B10: 2.796.2 (antibody, V domains shown)
VH: B3 VH
VL: B3 VL
B11: 2.737.1.4 (antibody, V domains shown)
VH: B3 VH with S30R, N35S, S49A, Y50F, Y80F
VL: B3 VL with F29I, S30N, R31K, G56S, S63N, L73F, S76N, S77T, N94T
B12: 2.2071.1.3 (antibody, V domains shown)
VH: B3 VH with H101R, A103V
VL: B3 VL with I21L, Q27H, F29I, S30N, G56S, S65N, T91S, N94T, K108T
B13: 5.16.1 (antibody, V domains shown)
VH: QVQLVQSGAEVKKPGASVKVSCKASGYTFTSYYMYWVRQAPGQGLEWMGIINPSGGSTSYAQKFQGRVTMTRDTSTSTVYMELSSLRSEDTAVYYCARGSSPFFDYWGQGTLVTVSS
VL: DIQMTQSPSSLSASVGDRVTITCRASQIISHFLNWYQQKPGKAPKLLVYVASSLQSGVPSRFSGSGSGTDFTLTISSLQPEDFATYYCQQSFSIPLTFGGGTKVEIK

Target: T1, PDGFR-alpha on MG-63 cells (human, UniProt P16234 24-1089)
Assay: cell-based or functional assay

T1 sequence (P16234 24-1089): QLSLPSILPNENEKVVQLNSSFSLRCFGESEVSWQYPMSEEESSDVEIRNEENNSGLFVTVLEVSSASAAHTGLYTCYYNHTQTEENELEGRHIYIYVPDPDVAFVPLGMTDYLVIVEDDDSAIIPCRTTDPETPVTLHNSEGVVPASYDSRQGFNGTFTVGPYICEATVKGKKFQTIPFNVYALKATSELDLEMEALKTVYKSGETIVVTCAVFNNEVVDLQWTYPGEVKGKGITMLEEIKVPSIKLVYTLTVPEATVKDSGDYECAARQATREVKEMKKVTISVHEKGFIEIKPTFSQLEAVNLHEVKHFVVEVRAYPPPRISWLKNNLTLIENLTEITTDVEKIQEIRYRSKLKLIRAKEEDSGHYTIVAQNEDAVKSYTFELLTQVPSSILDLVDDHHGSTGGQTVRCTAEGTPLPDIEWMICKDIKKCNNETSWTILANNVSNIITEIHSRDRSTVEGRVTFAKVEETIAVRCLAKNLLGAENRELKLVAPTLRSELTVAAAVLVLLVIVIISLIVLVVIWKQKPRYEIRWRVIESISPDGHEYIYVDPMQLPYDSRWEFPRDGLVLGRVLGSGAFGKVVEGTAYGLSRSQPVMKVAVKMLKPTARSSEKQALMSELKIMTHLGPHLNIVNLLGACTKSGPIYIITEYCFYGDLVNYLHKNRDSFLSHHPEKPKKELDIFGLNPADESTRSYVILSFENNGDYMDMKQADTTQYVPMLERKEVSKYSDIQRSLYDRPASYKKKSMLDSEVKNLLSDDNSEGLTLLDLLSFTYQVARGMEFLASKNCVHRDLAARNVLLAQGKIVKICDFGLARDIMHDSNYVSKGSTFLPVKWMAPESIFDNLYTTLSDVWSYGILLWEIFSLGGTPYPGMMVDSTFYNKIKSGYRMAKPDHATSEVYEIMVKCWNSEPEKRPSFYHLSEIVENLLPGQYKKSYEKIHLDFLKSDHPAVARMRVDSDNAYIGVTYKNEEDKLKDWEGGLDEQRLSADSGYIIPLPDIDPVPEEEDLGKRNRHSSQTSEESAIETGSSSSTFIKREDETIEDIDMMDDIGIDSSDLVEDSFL

PROLIFERATION ASSAY: MG-63 CELLS, IC50 [nM]	Binder
4.3	B1
4.35	B2
5	B3
3.72	B4
0.37	B5

Target: PDGFR-alpha on human osteosarcoma MG-63 cells (human, UniProt P16234 24-1089)
Assay: cell-based or functional assay

Chain of PDGFR-alpha on human osteosarcoma MG-63 cells (P16234 24-1089): as above

Proliferation Assay: IC50 ng/ml (1-6-06) [ng/mL]	Proliferation Assay: IC50 ng/ml (1-23-06) [ng/mL]	Proliferation Assay: IC50 (1-6-06) [nM]	Proliferation Assay: IC50 (1-23-06) [nM]	pTyr Assay: % Inhibition @ 2 µg/ml [%]	Binder
404	471	2.7	3.1	100	B6
1080	649	–	–	97	B7
658	349	4.4	2.3	99	B8
1040	652	–	–	99	B9
498	757	–	–	99	B10
551	558	3.7	3.73	99	B11
1280	492	8.5	3.3	99	B12
386	423	2.57	2.81	99	B13

Target: T1, PDGFR-alpha on MG-63 cells
Assay: cell-based or functional assay
Remark: another data set of the same source

Average pTyr Inhibition [%]	Binder
97	B1
91	B2
93	B3
93	B4
99	B5

Target: T1, PDGFR-alpha on MG-63 cells
Assay: FACS titration on MG-63 cells expressing PDGFR-alpha, 4 °C, Cy5 secondary antibody, nonlinear fit of geometric mean fluorescence
Experimental: Briefly, MG-63 cells expressing PDGFR-alpha were resuspended in FACS buffer (2% FBS, 0.05% NaN3) at a concentration of approximately 3 to 5 million cells/mL. Cells were kept on ice. Purified antibodies and CD140a control were serially diluted in filtered 1×PBS (2×) across 11 wells in 96-well plates. The twelfth well in each row contained buffer only. 1×PBS and cells were added to each mAb well such that the final volume was 30 μL/well and each well contained approximately 100,000 cells. The final molecular concentration ranges for the mAbs were as follows:
Plates were placed on a plate shaker for 5 hours at 4° C., then spun and washed 3× with PBS. […] Plates were then placed on a shaker for 40 minutes at 4° C., then spun and washed 3× with PBS.
The Geometric Mean Fluorescence (GMF) of 15,000 to 20,000 cell ‘events’ for each mAb concentration was determined using a FACSCalibur instrument. For each mAb, the GMF data was normalized for both replicate titrations relative to an identical mAb concentration point in each titration. Corresponding normalized titration points were averaged to give one normalized GMF point for each mAb concentration. […] A nonlinear plot of GMF as a function of molecular mAb concentration was fit using Scientist software using the equation:

Kd [nM]	Binder
0.328	B5

Target: T2, murine PDGFRa on NIH3T3 cells (murine, UniProt P26618 25-1089)
T2 construct: whole, on cells; also called mouse PDGFR-alpha
Assay: FACS on NIH3T3 cells, goat anti-human IgG Cy5
Experimental: To set up animal xenograft studies, mouse cross-reactivity was determined using FACS analysis performed with NIH3T3 cells, a murine fibroblast line which expresses endogenous PDGFRa. […] Cells were rinsed and analyzed by FACS for the presence of Cy5.

T2 sequence (P26618 25-1089): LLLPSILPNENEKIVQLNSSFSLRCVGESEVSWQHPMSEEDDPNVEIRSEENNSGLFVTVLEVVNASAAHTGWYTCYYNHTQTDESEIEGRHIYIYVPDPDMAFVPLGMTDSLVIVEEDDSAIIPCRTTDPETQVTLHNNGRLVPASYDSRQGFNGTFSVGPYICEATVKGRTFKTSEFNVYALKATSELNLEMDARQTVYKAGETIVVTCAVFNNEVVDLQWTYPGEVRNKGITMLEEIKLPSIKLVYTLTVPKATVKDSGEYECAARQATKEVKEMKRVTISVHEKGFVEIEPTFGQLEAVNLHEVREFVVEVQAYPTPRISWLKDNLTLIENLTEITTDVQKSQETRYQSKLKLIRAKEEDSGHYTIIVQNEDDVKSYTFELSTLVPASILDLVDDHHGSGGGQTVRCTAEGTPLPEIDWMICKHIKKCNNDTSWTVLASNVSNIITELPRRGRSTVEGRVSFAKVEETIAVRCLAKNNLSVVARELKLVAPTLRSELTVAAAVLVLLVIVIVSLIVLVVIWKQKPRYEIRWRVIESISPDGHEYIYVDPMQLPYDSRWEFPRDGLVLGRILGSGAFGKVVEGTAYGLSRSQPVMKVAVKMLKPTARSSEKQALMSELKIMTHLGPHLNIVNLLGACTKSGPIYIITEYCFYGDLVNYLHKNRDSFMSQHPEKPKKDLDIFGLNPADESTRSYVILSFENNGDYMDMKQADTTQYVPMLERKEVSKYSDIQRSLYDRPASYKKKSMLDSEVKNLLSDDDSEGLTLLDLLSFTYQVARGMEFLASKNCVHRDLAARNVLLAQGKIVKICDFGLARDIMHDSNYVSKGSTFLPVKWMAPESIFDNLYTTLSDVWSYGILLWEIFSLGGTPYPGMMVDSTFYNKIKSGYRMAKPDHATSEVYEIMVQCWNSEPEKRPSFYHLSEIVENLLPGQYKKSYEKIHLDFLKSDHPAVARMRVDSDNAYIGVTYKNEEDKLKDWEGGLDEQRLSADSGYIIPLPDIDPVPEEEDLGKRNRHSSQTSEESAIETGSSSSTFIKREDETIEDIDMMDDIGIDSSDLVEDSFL

binding result	Binder
no binding (tested: 10 ug/ml)	B6
no binding (tested: 10 ug/ml)	B7
no binding (tested: 10 ug/ml)	B8
no binding (tested: 10 ug/ml)	B9
no binding (tested: 10 ug/ml)	B10
no binding (tested: 10 ug/ml)	B11
no binding (tested: 10 ug/ml)	B12
no binding (tested: 10 ug/ml)	B13

— patent US20090324601A1 (published 2009)
